Consider three molecules from article PMC12362098, “Dimerization of Cdc13 is essential for dynamic DNA exchange on telomeric DNA” (The Journal of Biological Chemistry, 2025).

Data set [1] deals with the molecule itself. As to the kind of experiment: mass photometry; Cdc13 alone diluted in PBS, 11.25 nM protein, room temperature.
The target of data set [2] is T1, Cdc13-L91R (Saccharomyces cerevisiae, UniProt P32797 1-924, L91R).
T1 sequence: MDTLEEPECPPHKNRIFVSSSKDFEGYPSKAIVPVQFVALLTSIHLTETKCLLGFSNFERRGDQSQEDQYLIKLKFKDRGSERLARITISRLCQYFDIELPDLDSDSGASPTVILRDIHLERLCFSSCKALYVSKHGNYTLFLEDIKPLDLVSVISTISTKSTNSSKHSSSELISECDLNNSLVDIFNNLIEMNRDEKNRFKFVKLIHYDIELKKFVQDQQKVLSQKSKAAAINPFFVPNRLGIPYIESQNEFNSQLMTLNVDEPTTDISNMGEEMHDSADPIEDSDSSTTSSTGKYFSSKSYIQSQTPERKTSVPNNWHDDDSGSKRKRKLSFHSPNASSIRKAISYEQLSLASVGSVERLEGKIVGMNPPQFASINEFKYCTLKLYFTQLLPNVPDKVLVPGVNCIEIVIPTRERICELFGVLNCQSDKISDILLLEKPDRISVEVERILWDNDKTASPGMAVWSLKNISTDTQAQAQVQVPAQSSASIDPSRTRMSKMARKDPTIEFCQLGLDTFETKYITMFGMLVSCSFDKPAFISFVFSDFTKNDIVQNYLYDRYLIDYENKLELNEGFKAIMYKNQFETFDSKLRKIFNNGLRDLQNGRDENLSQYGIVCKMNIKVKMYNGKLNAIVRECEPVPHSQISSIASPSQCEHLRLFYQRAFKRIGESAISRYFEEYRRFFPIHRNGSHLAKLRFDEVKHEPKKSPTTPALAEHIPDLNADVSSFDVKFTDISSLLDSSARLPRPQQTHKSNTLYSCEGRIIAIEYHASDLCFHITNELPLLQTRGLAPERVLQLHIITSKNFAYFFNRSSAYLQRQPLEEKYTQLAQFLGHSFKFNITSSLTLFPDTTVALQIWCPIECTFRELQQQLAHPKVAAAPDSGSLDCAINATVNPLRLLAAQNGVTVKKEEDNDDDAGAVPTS
Put plainly: mass photometry; small population with two monomers per ssDNA; binding buffer; 25 mM HEPES pH 8.0, 50 mM NaOAc, 150 mM NaCl, 7.5 mM MgCl2 (1x DNA-binding buffer); DDE incubation 30 C, 8% native gel; mass photometry at room temperature after 30 C incubation; BLI buffer details not in material. The conditions noted are these: protein: recombinant.

The target in data set [3] is T2, Cdc13 WT (Saccharomyces cerevisiae, UniProt P32797 1-924).
T2 sequence: T1 sequence with R91L
Put plainly: mass photometry; one and two dimers per ssDNA; binding buffer; 25 mM HEPES pH 8.0, 50 mM NaOAc, 150 mM NaCl, 7.5 mM MgCl2 (1x DNA-binding buffer); DDE incubation 30 C, 8% native gel; mass photometry at room temperature after 30 C incubation; BLI buffer details not in material. Particulars: protein: recombinant; chain copies: 2.

Data set [4] concerns the target T2, Cdc13 WT. As to the kind of experiment: competition EMSA (DDE assay); EC50 for displacing 2 nM prebound IR800-Tel30G; 3.75 nM dimer; 30 C; value introduced 'as reported (9)', assay also run here; 25 mM HEPES pH 8.0, 50 mM NaOAc, 150 mM NaCl, 7.5 mM MgCl2 (1x DNA-binding buffer); DDE incubation 30 C, 8% native gel; mass photometry at room temperature after 30 C incubation; BLI buffer details not in material. The conditions noted are these: protein: recombinant; chain copies: 2; label: 5' IRDye700.

Data set [5] has as its target T1, Cdc13-L91R. Put plainly: competition EMSA (DDE assay); EC50 for displacing 2 nM prebound IR800-Tel30G; 3.75 nM monomer; 30 C; 25 mM HEPES pH 8.0, 50 mM NaOAc, 150 mM NaCl, 7.5 mM MgCl2 (1x DNA-binding buffer); DDE incubation 30 C, 8% native gel; mass photometry at room temperature after 30 C incubation; BLI buffer details not in material. The conditions noted are these: protein: recombinant; label: 5' IRDye700.

Changes are numbered by the printed parent chain.

B1: Cdc13 (wild type, recombinant) (natural protein, S. cerevisiae, UniProt P32797 1-924, looked up)
chain: T1 sequence with R91L
notes: called full-length WT Cdc13 in the text; The vector encodes a 5'-SUMO-His6 tag and a 3'-FLAG tag for purification; The monomer mass seen was ~105 kDa; also called WT Cdc13
For the molecule B1, the “stoichiometry N” value in data set [1] was determined as 2. GTGTGGGTGTGGTGTGGGTGTGGTGTGGGTGTGTGGGTGTGGTGTGGGTG (ssDNA) [Tel50G]: the binding result in the data set with Cdc13-L91R [2] and with Cdc13 WT [3] was “binds” throughout. For the molecule CGCCATGCTGATCCGTGTGGTGTGTGTGGG (ssDNA) [IR700-Tel30G], the IC50 with Cdc13 WT [4] was determined as 0.00089 µM; with Cdc13-L91R [5] it was 0.0316 µM.
